Sequences and labels used below:
B1: SNAP25 C-terminal peptide (residues 189–206) (peptide, UniProt P60880 189-206, looked up)
peptide: KTRIDEANQRATKMLGSG
notes: also called C-terminal SNAP25 peptide
B2: Nanobody-5 (Nb5) (VHH)
VHH: QVQLVESGGGLVQAGGSLRLSCAASGSIFSINAMGWYRQAPGKQRELVAAITRGGRTNYADSVKGRFTLSRDNAKNTVYLQMNSLKPEDTAVYYCNVGRSRGYWGQGTQVTVSS
notes: as the chain of m17; source: expressed and purified as described previously (53); plasmid a gift of the Palczewski laboratory
B3: biotinylated Nb5 (VHH)
VHH: B2 VHH
notes: also called Nanobody-5; source: expressed and purified as described previously (53); plasmid a gift of the Palczewski laboratory
B4: Gγ3, res. 56–70 peptide (peptide)
peptide: ITPVPTSENPFREKK
modifications: on the array: C-terminus coupled to the membrane
notes: Gγ3, human, printed as residues 56-70; source: synthetic peptide: SPOT array on membrane (ResPep SL)
B5: Gγ3, res. 13–27 peptide (peptide)
peptide: IGQARKMVEQLKIEA
modifications: also: C-terminus coupled to the membrane
notes: Gγ3, human, residues 13-27; source: synthetic peptide: SPOT array on membrane (ResPep SL)
B6: Gγ1, res. 1–15 peptide (peptide)
peptide: MPVINIEDLTEKDKL
notes: Gγ1, human, residues 1-15; also called Gγ1 N-terminal peptide; source: peptide stock in DMSO
B7: Gγ13, res. 16–30 peptide (peptide)
peptide: LKYQLAFQREMASKT
modifications: on the array: C-terminus coupled to the membrane
notes: Gγ13, human, residues 16-30; source: synthetic peptide: SPOT array on membrane (ResPep SL)
B8: Gγ5, res. 49–63 peptide (peptide)
peptide: LTGVSSSTNPFRPQK
modifications: on the array: C-terminus coupled to the membrane
notes: Gγ5, human, residues 49-63; source: synthetic peptide: SPOT array on membrane (ResPep SL)
B9: Gγ12, res. 7–21 peptide (peptide)
peptide: STNNIAQARRTVQQL
modifications: on the array: C-terminus coupled to the membrane
notes: Gγ12, human, residues 7-21; source: synthetic peptide: SPOT array on membrane (ResPep SL)
B10: Gγ2, res. 1–15 peptide (peptide)
peptide: MASNNTASIAQARKL
modifications: on the array: C-terminus coupled to the membrane
notes: Gγ2, human, residues 1-15; also called Gγ2 N-terminal peptide; Gγ2 amino-terminal peptide; source: synthetic peptide: SPOT array on membrane (ResPep SL)
B11: Gγ8, res. 52–66 peptide (peptide)
peptide: PVPAAENPFRDKRLF
modifications: on the array: C-terminus coupled to the membrane
notes: Gγ8, human, residues 52-66; source: synthetic peptide: SPOT array on membrane (ResPep SL)
B12: Gγ2, res. 52–66 peptide (peptide)
peptide: TPVPASENPFREKKF
modifications: on the array: C-terminus coupled to the membrane
notes: Gγ2, human, residues 52-66; also called Gγ2 peptide 18 (by the array's scheme of 15-mers shifted by three); source: synthetic peptide: SPOT array on membrane (ResPep SL)
B13: Gγ10, res. 4–18 peptide (peptide)
peptide: GASASALQRLVEQLK
modifications: on the array: C-terminus coupled to the membrane
notes: Gγ10, human, residues 4-18; source: synthetic peptide: SPOT array on membrane (ResPep SL)

Where no end group is shown, it is not given here. A value given as a limit tells only on which side of the number the result lay.

The target of one test is T1, His-tagged soluble Gβ1γ2 (C68S) (UniProt P62873 1-340; P59768 1-71, C68S).
T1 construct: G-protein subunit β1 (Gβ1); G-protein subunit γ2 (Gγ2) with C68S (soluble); it is entered on Gβ1; For MST the His tag was labelled with Red-tris-NTA; also called full-length Gβ1γ2; His6-Gβ1γ2; source: Sf9 cells, purified as previously described (69)
Description: AlphaScreen or HTRF; competition: SNAP25 C-terminal peptide (189-206) against biotinylated full-length SNAP25 for His6-Gβ1γ2. To be noted: both partners purified.
For the molecule B1, the IC50 was 1840 nM.

The target of the next test is T2, His-tagged soluble Gβ1γ2 (C68S) (UniProt P62873;P59768, C68S).
T2 construct: G-protein subunit β1 (Gβ1); G-protein subunit γ2 (Gγ2) with C68S (soluble); it is entered on Gβ1; For MST the His tag was labelled with Red-tris-NTA; also called full-length Gβ1γ2; His6-Gβ1γ2; source: Sf9 cells, purified as previously described (69)
As to the kind of experiment: AlphaScreen or HTRF; competition: Nb5 0.4 nM-1.26 μM; biotinylated SNAP25 with an EC80 concentration of His-tagged Gβ1γ2. To be noted: both partners purified.
Regarding B2, the IC50 stood at 24.6 nM.

Another test concerns the target T2, His-tagged soluble Gβ1γ2 (C68S). Description: AlphaScreen or HTRF; direct binding: 20 nM biotinylated Nb5 with 0.1 nM-1 μM His-tagged Gβ1γ2; concentration-response curves fitted for EC50. To be noted: both partners purified.
With B3, the response was half-maximal at 3.72 nM (EC50).

The target in a further test is T3, biotinylated SNAP25 (UniProt P60880 1-206, biotin (site not stated)).
T3 construct: SNAP25, wild type; also called full-length SNAP25; synaptosomal-associated protein-25; source: expressed and purified as described (12, 39)
As to the kind of experiment: AlphaScreen or HTRF; competition: Gγ peptides 1 nM-100 μM; 20 nM biotinylated SNAP25 on streptavidin donor beads, 180 nM His6-Gβ1γ2 on nickel chelate acceptor beads; 20 mM HEPES pH 7.0, 10 mM NaCl, 40 mM KCl, 5% glycerol, 0.01% Triton X-100; 27 °C. To be noted: both partners purified.
For the molecule B4, the 50% inhibitory concentration (IC50) came to 7010 nM.
B5 showed an IC50 of 4040 nM.
In the case of B6, the half-maximal inhibitory concentration (IC50) was greater than 100000 nM.
On the same count and under the same terms, with B7 the figure was 9460 nM; with B8, 1720 nM; with B9, 2910 nM.
Turning to B10, the IC50 was determined as 540 nM.
B11 returned an IC50 of 640 nM.
B12 registered an IC50 of 12600 nM.
On to B13, for which the IC50 turned out to be 430 nM.

(Values after PMC12302718, “Molecular basis for Gβγ-SNARE-mediated inhibition of synaptic vesicle fusion” (The Journal of Biological Chemistry, 2025).)
